From patent US9828589B2, “Acyltransferases and uses thereof in fatty acid production” (priority 2009, dated 2017)
“Also recorded” adds a separate entry of the source.

Tests used:
[1] = system: [14C]-18:1-Lysophosphatidlycholine (-LPC) and acyl-CoA; experiment: Determination of substrate specificity for LPLAT, lysophosphatidylcholine as acyl-acceptor (LPCAT assay); assay type: biochemical, Saccharomyces cerevisea; conditions: comparing FIG. 7 (10 mg/ml BSA) and FIG. 9 (0 mg/ml BSA)
Method: (§1) The specific activity of the enzymes LPLAT_18374 (Pi) and LPCAT_02075 (Pi) using the substrates indicated at the x-axis is gives as the amount (in nmol) of substrate/product consumed/produced in one minute per mg total protein and was determined as described in example 6. The specific activities measured for microsomal extracts of yeast harboring an empty vector (pYES2 ev) is shown as control.
as §1, with “AtLPCAT1-At1g12640, AtLPCAT2-At1g63050, BnLPCAT1” for “LPLAT_18374 (Pi)”, “BnLPCAT2” for “LPCAT_02075 (Pi)”

[2] = system: yeast mutant lacking LPAAT activity (knockout of the gene YDL052c); experiment: LPAAT activity assay using yeast extracts (complementation, formation of phosphatidic acid); conditions: complements knockout strain; TLC, FIG. 1
Method: Microsomal isolations of these transformants and the wildtype yeast strain BY4742 (lane marked “+”) where incubated with ^14C-labeled oleic acid and lysophosphatidic acid (LPA). Thin layer chromatography was performed to separate lipid classes.
The next day, expression of the acyltransferase polypeptides can be induced by transferring the cells to fresh media containing 2% galactose, for example by inoculating 100 ml of fresh culture to an optical density (measure at 600 nm) of OD600=0.1. Cells are harvested after 24 h incubation at 28° C. by centrifugation at 3000×g for 5 min and resuspended in 1 ml resuspention buffer (25 mM Tris/HCL pH 7.6) and disrupted using acid washed zirconium bead (200 μm average diameter) in a mill (Resch, Germany) by three minutes agitation at 300 rpm. The supernatant is transferred to a fresh tube and centrifuged at 3000×g for 5 min. The obtained supernatant is the crude extract. Protein content is measured according to Bradford (Bradford, M. M. (1976), Anal. Biochem. Bd. 72, pp. 248-254) with bovine serum albumin as standard. Assay mixtures contain 50 μg of protein, 10 μl of 10 mM [^14C]-glycerole-3-phosphate (2000 dpm/nmol), 10 μl of 1 mM 18:1-CoA in assay buffer (25 mM Tris/HCL pH 7.6, 0.5 mg/ml BSA) to give a total volume of 100 μl. Samples are incubated for 10 min at 30° C. The assays are terminated by extraction of the lipids into chloroform according to Blight and Dyer (Bligh, E. G. and Dyer, W. J. (1959), Can. J. Biochem. Physiol. 37, pp. 911-917). Lipids are separated on thin layer chromatography (TLC) silica 60 plates (Merck) using chloroform/methanol/acetic acid/water (90:15:10:3), and autoradiographic pictures are taken using an instant imager (Packard).

[3] = system: [14C]-18:1-LPA and acyl-CoA; experiment: Determination of substrate specificity for LPAAT (yeast microsomal fraction); assay type: biochemical, Saccharomyces cerevisea; conditions: comparing FIG. 5 (10 mg/ml BSA) and FIG. 6 (0 mg/ml BSA)
Method: as §1, with “enzyme LPAAT_13842” for “enzymes LPLAT_18374 (Pi) and LPCAT_02075”, “5.” for “6.”, “(pYES2.1” for “(pYES2”
as §1, with “BnLPAAT2” for “LPLAT_18374 (Pi)”, “AtLPAAT2-At3g57650” for “LPCAT_02075 (Pi)”, “5.” for “6.”

Molecule | selectivity towards the length and the desaturation state of the substrate fatty acid [1] | LPAAT activity (formation of phosphatidic acid, PA) [2] | selectivity towards the length and the desaturation state of the substrate fatty acid [3]
LPLAT_18374 (Pi): acyltransferase from Phythophtora infestance, 558 amino acids, SEQ-ID 8, encoded by SEQ-ID 7 (protein, Phythophtora infestance) MSTTALLQASTSPPPSREPEYAALEQLEPPLSHAIDMGVKVSPSESAAIAGGVYVTASSSCGASTIKHNPFTYTTPVDTYEKAKMTILCLLGVPFIRFVLLLCVGILLVIVSHLALIGYKPLDAHSGARPPLPRWRRIVGSPVPYLLRSLMLIVGYYWVPVKYPPNFNRHAMPRVIVSNHLTFFDGLYIFTLLSPSIAMKTDVANLPLISRIVQMIQPILIDRGTPEGRRRAMNDITSHVADPSKPPLLVFPEGTTSNQTVLCKFKVGSFVSGVPCQPVVLRYPYKHFDLSWPPGVSGLYLALRVLCQVYNRLEVEILPAYYPSERERKDPQLYAINVREVMAKALGVPTTNHAFEDVAMLMRVGDYATKHVVPLTDVGEVISLTALKRGDVDRLVGYFRRHDLDKDGHLSMQELRALFPNDDPVIVDQLFDLVDLDDSGLIDFRELCLALRALNPQNINEGDDALAKFAFRLYDLDNNGVIDASELEQLLRFQRNFYGVSEASVAAALRQAQAENTTGITYNRFEQLVLQNPEVLWYVRDKLEVLRGSMRESSLEIP | not as selective as AtLPAAT1 or AtLPCAT2 or BnLPCAT1 or BnLPCAT2 | having LPAAT activity; also recorded: have LPAAT activity | 
LPAAT_13842 (Pi): acyltransferase from Phythophtora infestance, 424 amino acids, SEQ-ID 12, encoded by SEQ-ID 11 (protein, Phythophtora infestance) MSFATPAQVLQDVRFEERFAEIESRLPATLALAKEGSLAKRNQTKRKLYHDSELIRIELEERLNELGIESQWVTAPEMKEANEKLDAVRKQLKLDVLPASSSPLEKIYMVVRMLTMVLVLVGWLSCVTVLIPLKWLNPVLKKMGVKKNYLPMDIVSWGTAFMVCVTACTDMKAEGVENLLNLKDSVVCMFSHSSNLDGFIVNGSSPIAFKFAAKKSIFLVPFLGWSSRWGFDFVAIDRSHRKSALKSLKELAVSVNEHGNSVCISPEGTRSKDGLLQEFKKGPFYLREDTKKNVVPSIVFGAYELWPPGRLFSIPGHTLVRYLPEYKSDPNLNRNQNRLALRRIYLKAFTEDVPDYIGTRVSTNFILKNMFYHYLAWAITFKVTSWALTVISLVLYWLNITYGTFMLFSLVMMVAGEALMFFTC |  | having LPAAT activity; also recorded: have LPAAT activity | not as selective as AtLPAAT2 and BnLPAAT2
